Residue numbers refer to the chain shown, from its start. Read-outs that look alike come from different tables or passages of the source. Blank lines part the entries; values can stand above or below the binder they belong to.
Assays:
human CLDN18.1 [1] = molecular target: T1, human CLDN18.1 (human, UniProt P56856 1-261); assay: FACS, U2OS-CLDN18.1 cells, antibody at 200 nM
T1 construct: also called claudin18.1
Description: (§1) Based on the FACS method, the binding activity of anti-CLDN18.2 antibodies for the cell line U2OS-CLDN18.1 overexpressing CLDN18.1 (SEQ ID NO: 2) was analyzed. The cell concentration was adjusted with PBS, and the U2OS-CLDN18.1 cells were added to a 96-well plate at 3×10⁵ cells/well, then the test antibodies were added to each well of the 96-well plate, the final concentration of the antibody was 200 nM, and the mixture was incubated at 4° C. for 60 min. The supernatant was discarded, the cells were washed 3 times with pre-cooled PBS buffer, PE-Goat Anti-Human IgG Fcγ (Jackson immunoresearch, Cat. No. 109-116-170) diluted at 1:200 was added at 100 μL/well, and the mixture was incubated at 4° C. for 30 min. Cells were washed 3 times with pre-cooled PBS buffer and resuspended in 100 μL of PBS buffer, and then the fluorescence signals were detected using a flow cytometer (Sartorius, iQUE3). The nonspecific binding of the anti-CLDN18.2 antibodies for U2OS-CLDN18.1 cells was measured by mean fluorescence intensity (MFI) of staining. The IgG1 isotype control antibody (prepared in-house, with the heavy and light chain amino acid sequences as set forth in SEQ ID NOs: 67 and 68 in the present disclosure) was used as the control, and 2-fold the IgG1 isotype control antibody was used as the benchmark, thus determining the presence or absence of nonspecific binding.

human CLDN18.2 [2] = molecular target: T2, human CLDN18.2 (human); assay: FACS, NUGC-4 cells (natural CLDN18.2)
T2 construct: also called claudin18.2
Description: (§2) Based on the FACS method, the binding activity of anti-CLDN18.2 antibodies for the cell line U2OS-CLDN18.2 overexpressing CLDN18.2 and the cell lines KATOIII (Cell Bank of the Chinese Academy of Sciences) and NUGC-4 (Cell Bank of the Chinese Academy of Sciences) naturally expressing CLDN18.2 was analyzed.
(§3) The cell concentration was adjusted with PBS, and cells (U2OS-CLDN18.2, KATOIII, or NUGC-4 cells) were added to a 96-well plate at 3×10⁵ cells/well, then the test antibodies at different concentrations were added to each well of the 96-well plate, and the mixture was incubated at 4° C. for 60 min. […] The supernatant was discarded, the cells were washed 3 times with pre-cooled PBS buffer, PE-Goat Anti-Human IgG Fcγ (Jackson immunoresearch, Cat. No. 109-116-170) diluted at 1:200 was added at 100 μL/well, and the mixture was incubated at 4° C. for 30 min. Cells were washed 3 times with pre-cooled PBS buffer and resuspended in 100 μL of PBS buffer, and then the fluorescence signals were detected using a flow cytometer (Sartorius, iQUE3). The binding ability of the anti-CLDN18.2 antibodies for CLDN18.2 was measured by mean fluorescence intensity (MFI) of staining.

human CLDN18.2 [3] = molecular target: T2, human CLDN18.2; assay: FACS, NUGC-4 cells (natural CLDN18.2); remark: listed apart in the source
Description: (§4) Based on the FACS method, the binding activity of anti-CLDN18.2 humanized antibodies for the cell lines KATOIII (Cell Bank of the Chinese Academy of Sciences) and NUGC-4 (Cell Bank of the Chinese Academy of Sciences) naturally expressing CLDN18.2 was analyzed. […] See Example 3 for the specific method.

human CLDN18.2 [4] = molecular target: T2, human CLDN18.2; assay: FACS, KATOIII cells (natural CLDN18.2)
Description: as §2, §3

human CLDN18.2 [5] = molecular target: T2, human CLDN18.2; assay: cell-based or functional assay
human CLDN18.2 [6] = molecular target: T2, human CLDN18.2; assay: cell-based or functional assay; remark: listed apart in the source
human CLDN18.2 [7] = molecular target: T2, human CLDN18.2; assay: FACS, KATOIII cells (natural CLDN18.2); remark: listed apart in the source
Description: as §4

human CLDN18.2 [8] = molecular target: T2, human CLDN18.2; assay: FACS, KATOIII cells (natural CLDN18.2); remark: listed apart in the source
Description: as §2, §3

human CLDN18.2 [9] = molecular target: T2, human CLDN18.2; assay: FACS, NUGC-4 cells (natural CLDN18.2); remark: listed apart in the source
Description: as §4

human CLDN18.2 [10] = molecular target: T2, human CLDN18.2; assay: cell-based or functional assay; remark: listed apart in the source
human CLDN18.2 [11] = molecular target: T2, human CLDN18.2; assay: cell-based or functional assay; remark: listed apart in the source
human CLDN18.2 [12] = molecular target: T2, human CLDN18.2; assay: cell-based or functional assay; remark: listed apart in the source
human CLDN18.2 [13] = molecular target: T2, human CLDN18.2; assay: FACS, KATOIII cells (natural CLDN18.2); remark: listed apart in the source
Description: as §4

human CLDN18.2 [14] = molecular target: T2, human CLDN18.2; assay: FACS, U2OS-CLDN18.2 cells
Description: as §2, §3

human CLDN18.2 [15] = molecular target: T2, human CLDN18.2; assay: FACS, U2OS-CLDN18.2 cells; remark: listed apart in the source
Description: as §2, §3

human CLDN18.2 [16] = molecular target: T2, human CLDN18.2; assay: FACS, U2OS-CLDN18.2 cells; remark: listed apart in the source
Description: as §2, §3

human CLDN18.2 [17] = molecular target: T2, human CLDN18.2; assay: FACS, NUGC-4 cells (natural CLDN18.2); remark: listed apart in the source
Description: as §2, §3

human CLDN18.2 [18] = molecular target: T2, human CLDN18.2; assay: FACS, NUGC-4 cells (natural CLDN18.2); remark: listed apart in the source
Description: as §2, §3

human CLDN18.2 [19] = molecular target: T2, human CLDN18.2; assay: cell-based or functional assay; remark: listed apart in the source
human CLDN18.1 [20] = molecular target: T1, human CLDN18.1; assay: FACS, U2OS-CLDN18.1 cells; MFI against 2-fold the IgG1 isotype control
Description: as §1

MFI (human CLDN18.1 [1]): 6220
EC50 (human CLDN18.2 [2]): 567 nM
EC50 (human CLDN18.2 [3]): 293 nM
EC50 (human CLDN18.2 [4]): ~26900 nM
CDC EC50, KATOIII target cells (human CLDN18.2 [5]): 12.8 nM
CDC EC50, U2OS-CLDN18.2 target cells (human CLDN18.2 [5]): 9.79 nM
ADCC EC50, Jurkat-CD16a v158-NFAT-luciferase effector cells, KATOIII target cells (human CLDN18.2 [6]): 1.52 nM
ADCC EC50, Jurkat-CD16a v158-NFAT-luciferase effector cells, NUGC-4 target cells (human CLDN18.2 [6]): 12 nM
ADCC EC50, Jurkat-CD16a v158-NFAT-luciferase effector cells, U2OS-CLDN18.2 target cells (human CLDN18.2 [6]): 0.05 nM
EC50 (human CLDN18.2 [7]): 38.2 nM
EC50 (human CLDN18.2 [8]): 81.3 nM
EC50 (human CLDN18.2 [9]): 567 nM
ADCC EC50, PBMC effector cells, KATOIII target cells (human CLDN18.2 [10]): ~0.123 nM
ADCC EC50, PBMC effector cells, NUGC-4 target cells (human CLDN18.2 [10]): 37.1 nM
ADCC EC50, Jurkat-CD16a v158-NFAT-luciferase effector cells, NIH-3T3-CLDN18.2 target cells (human CLDN18.2 [11]): 0.023 nM
ADCC EC50, Jurkat-CD16a v158-NFAT-luciferase effector cells, NUGC-4 target cells (human CLDN18.2 [11]): 0.856 nM
CDC EC50, NIH-3T3-CLDN18.2 target cells (human CLDN18.2 [12]): 24.4 nM
EC50 (human CLDN18.2 [13]): 16.3 nM
EC50 (human CLDN18.2 [14]): 16 nM
EC50 (human CLDN18.2 [15]): 22.9 nM
EC50 (human CLDN18.2 [16]): 16.2 nM
EC50 (human CLDN18.2 [17]): 202 nM
EC50 (human CLDN18.2 [18]): 1450 nM
ADCC EC50, Jurkat-CD16a v158-NFAT-luciferase effector cells, KATOIII target cells (human CLDN18.2 [19]): 16.9 nM
ADCC EC50, Jurkat-CD16a v158-NFAT-luciferase effector cells, U2OS-CLDN18.2 target cells (human CLDN18.2 [19]): 0.014 nM
B1: IMAB362 (antibody, human IgG1, kappa, V domains shown)
VH: QVQLQQPGAELVRPGASVKLSCKASGYTFTSYWINWVKQRPGQGLEWIGNIYPSDSYTNYNQKFKDKATLTVDKSSSTAYMQLSSPTSEDSAVYYCTRSWRGNSFDYWGQGTTLTVSS
VL: DIVMTQSPSSLTVTAGEKVTMSCKSSQSLLNSGNQKNYLTWYQQKPGQPPKLLIYWASTRESGVPDRFTGSGSGTDFTLTISSVQAEDLAVYYCQNDYSYPFTFGSGTKLEIKR
notes: Positive control, prepared in-house; also called Claudiximab; TMAB362 [sic]
ADCC Maximum killing (%), PBMC effector cells, KATOIII target cells (human CLDN18.2 [10]): 20.7%
ADCC Maximum killing (%), PBMC effector cells, NUGC-4 target cells (human CLDN18.2 [10]): 29.1%

MFI (human CLDN18.1 [1]): 7630
EC50 (human CLDN18.2 [4]): 1.79 nM
CDC EC50, KATOIII target cells (human CLDN18.2 [5]): 0.302 nM
CDC EC50, U2OS-CLDN18.2 target cells (human CLDN18.2 [5]): 1.77 nM
ADCC EC50, Jurkat-CD16a v158-NFAT-luciferase effector cells, KATOIII target cells (human CLDN18.2 [6]): 0.064 nM
ADCC EC50, Jurkat-CD16a v158-NFAT-luciferase effector cells, NUGC-4 target cells (human CLDN18.2 [6]): 0.214 nM
ADCC EC50, Jurkat-CD16a v158-NFAT-luciferase effector cells, U2OS-CLDN18.2 target cells (human CLDN18.2 [6]): 0.06 nM
binding result (human CLDN18.1 [20]): no binding (tested: 200 nM)
ADCC EC50, PBMC effector cells, NUGC-4 target cells (human CLDN18.2 [10]): 0.62 nM
EC50 (human CLDN18.2 [16]): 4.28 nM
EC50 (human CLDN18.2 [17]): 19.9 nM
B2: chimeric antibody xi34G6 (antibody, human IgG1, kappa, V domains shown)
VH: QVQLKESGPDLVAPSQSLSITCTVSGFSLTSYGVHWVRQPPGKGLEWLVVIWSDGSTTYNSALKSRLSISKDNSKSQVFLKMNSLQTDDTAIYYCARHAYYGNSFDYWGQGTTLTVSS
VL: B1 VL with N37S, D97V, S99I, Y100F, F102L, S106A, I112L
notes: Mouse variable regions on human IgG1/kappa; defucosylated, expressed in FUT8-knockout CHO-S cells; also called chimeric 34G6
ADCC Maximum killing (%), PBMC effector cells, NUGC-4 target cells (human CLDN18.2 [10]): 40.9%
